“Also recorded” adds a separate entry of the source.
Tests used:
FIX/FIXa = experiment: Western Blot and ELISA reactivity with FIX/FIXa; assay type: binding
Experimental: Factor IX and the two activated forms of FIX, FIXaα and FIXaβ (FIX/FIXa(α,β)) were diluted in TBS (25 mM Tris HCl, 150 mM NaCl, pH 7.5) to a final concentration of 2 μg/ml. Nunc Maxisorp ELISA plates were coated with 100 μl FIX/FIXa(α,β) solution according to standard procedures (4° C., overnight) and washed several times with TBST (TBS, 0.1% (v/v) Tween 20). 50 μl hybridoma supernatant was diluted 1:1 with 50 μl TBST/2% BSA and added to the coated ELISA plate. After an incubation period of 2 h at room temperature (RT), plates were washed 4 times with TBST and incubated (2 h, RT) with 100 μl/well of a 1:25000 dilution (in TBST/1% BSA) of an anti-mouse IgG (Fc-specific) peroxidase conjugated antibody (Sigma, #A-0168). Wells were washed 5 times with TBST and finally stained with 100 μl freshly prepared staining solution (10 ml 50 mM sodium citrate, pH 5 supplemented with 100 μl OPD (60 mg OPD/ml) and 10 μl 30% H2O2). The reaction was stopped by the addition of […] H2SO4 and the optical density recorded at 492 nm and 620 nm in a Labsystems iEMS Reader MF™ microtiter plate reader employing GENESIS™ software. […]

FVIII deficient plasma = experiment: aPTT based one stage clotting assay in FVIII deficient plasma; assay type: biochemical, human; conditions: for procoagulant activity: one-stage clotting assay in the presence of FIXa; for clotting time: 50 ng FIXa
In short: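 Test samples preincubated 4 min with FVIII-deficient plasma and aPTT reagent (DAPTTIN or Pathromtin SL), optionally with 50 ng activated FIX; clotting started with 25 mM CaCl2. Read-out is clotting time from start to clot formation, set against FVIII, buffer or scrambled-peptide controls.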

factor IXa = molecular target: T1, factor IXa (Bos taurus, UniProt P00741); experiment: Chromogenic FVIII assay (COATEST VIII:C/4) with the kit's FIXa/FX; assay type: biochemical, bovine
T1 construct: purchased Chromogenix COATEST VIII:C/4
Experimental: In order to assay the FVIII-like activity of anti-FIXa antibodies secreted by hybridoma cells, the commercially available test-kit COATEST VIII:C/4® (Chromogenix) was employed. The assay was done essentially as described by the manufacturer with the following modifications:
To allow high throughput screening, the assay was downscaled to microtiter plate format. Briefly, 25 μl aliquots of hybridoma supernatants were transferred to microtiter plate (Costar, #3598) wells and warmed to 37° C. Chromogenic substrate (S-2222), synthetic thrombin inhibitor (I-2581), factor (F) IXa and FX were reconstituted in sterile water and FIXa/FX was mixed with phospholipids according to the supplier's protocol. Per reaction, 50 μl of the phospholipid/FIXa/FX solution were combined with 25 μl CaCl2 (25 mM) and 50 μl of the substrate/inhibitor cocktail. To start the reaction, 125 μl of the premix were added to the hybridoma supernatant in the microtiter plates and incubated at 37° C. Absorbency at 405 nm and 490 nm of the samples was read at various times (30 min to 12 h) against a reagent blank (MLW, cell culture medium instead of hybridoma supernatant) in a Labsystems iEMS Reader MF™ microtiter plate reader. FVIII-like activity of the samples was calculated by comparing the absorbency of the samples against the absorbency of a diluted FVIII reference standard (IMMUNO AG #5T4AR00) using GENESIS™ software.
Several anti-FIX/FIXa antibody producing hybridoma clones were subcloned up to four times and the resulting monoclonal hybridoma cell line used to produce monoclonal antibody containing supernatant. IgG isotype antibodies derived from these supernatants were purified over affinity columns and dialyzed against TBS (see above). IgM antibodies were used as unpurified supernatant fractions. […] Absorbance at 405 nm and 490 nm of the samples was read at various times (5 min to 6 h) against a reagent blank (cell culture medium instead of hybridoma supernatant) in a Labsystems iEMS Reader MF™ microtiter plate reader using GENESIS™ software. […]

FVIII inhibitor plasma = experiment: aPTT based one stage clotting assay in FVIII inhibitor plasma; assay type: biochemical; conditions: inhibitor potency 400 BU/ml, 50 ng activated FIXa
Experimental: […] […] […] After a 4 minute incubation, the reaction was started by the addition of 100 μl CaCl2 (25 mM). To ensure equal conditions, the experiments employing FVIII deficient plasma and FVIII inhibitor plasma were done side by side.
To assay for the procoagulant activity of peptide A1/3 in FVIII inhibitor plasma the following experiment was carried out. We performed a standard aPTT based one stage clotting assay, but instead of FVIII deficient plasma we employed FVIII inhibitor plasma.

T1 sequence (P00741 47-192 limits assumed): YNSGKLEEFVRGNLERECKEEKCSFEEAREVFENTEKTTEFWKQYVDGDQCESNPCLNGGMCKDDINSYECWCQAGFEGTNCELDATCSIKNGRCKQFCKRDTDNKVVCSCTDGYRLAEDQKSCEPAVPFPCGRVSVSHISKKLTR
T1 sequence (P00741 228-462 limits assumed): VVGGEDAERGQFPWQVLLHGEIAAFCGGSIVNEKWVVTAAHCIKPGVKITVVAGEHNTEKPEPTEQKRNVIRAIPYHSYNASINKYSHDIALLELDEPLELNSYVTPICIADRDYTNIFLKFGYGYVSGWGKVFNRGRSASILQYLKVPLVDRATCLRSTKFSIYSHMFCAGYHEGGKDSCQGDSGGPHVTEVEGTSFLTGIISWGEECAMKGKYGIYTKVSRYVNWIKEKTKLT

B1: #8860: irrelevant monoclonal antibody, negative control (protein)
chain 1: EVQLQQSGPELVKPGASVKISCKASGYAFSSSWMNWVKQRPGQGLEWIGRIYPGNGDTNYNGKFKGKATLTADKSSSTAYMQLSSLTSVDSAVYFCADGNVYYYAMDYWGQGTSVTVSS
chain 2: QIVLTQSPASLAVSLGQRATISCRASKSVSTSGYSYMHWYQQKPGQPPKLLIYLASNLESGVPARFSGSGSGTDFTLNIHPVEEEDAATYYCQHSRELPRTFGGGTKLEIKR
reactivity with FIX/FIXa (FIX/FIXa): does not react with FIX/FIXa

B2: 198/A1: anti-FIX/FIXa monoclonal IgG, ECACC No. 99090924; scFv SEQ. ID. NOs. 87 and 88 (protein)
scFv: EVQLQESGGGLVKPGGSLKLSCAASGFIFSSYTMSWVRQTPEKRLEWVATISSGGSSTYYPDSVKGRFTISRDNAKNTLYLQMSSLKSEDTAMYHCTREGGGYYVNWYFDVWGAGTTLTVSSGGGGSGGRASGGGGSDIELTQSPASLAVSLGQRATISCRASESVDSYGKSFMHWYQQKPGQPPKLLIYRASNLESGIPARFSGSGSRTDFTLTINPVEADDVATYYCQQSNEDPLTFGAGTRLEIKR
modifications: scFv derived from IgG; Description of Artificial Sequence:scFv derived from hybridima cell line 198/A1
notes: anti-FIX/FIXa monoclonal IgG, ECACC No. 99090924; ID; NOs; 87 and 88
procoagulant activity (FVIII deficient plasma): show procoagulant activity | chromogenic FVIII-like activity (FXa generation) without human FIXa (factor IXa; bovine FIXa and FX only, A1/3 24 μM): does not react with bovine FIXa and FX

B3: 193/AD3: anti-FIX/FIXa monoclonal antibody, IgG isotype; scFv SEQ. ID. NOs. 81 and 82 (protein)
scFv: EVKLVESGPELKKPGETVKISCKASGYIFTNYGMNWVKQAPGKGLKWMGWINTYTGEPTYADDFKGRFAFSLETSASTAYLQINNLKNEDTATYFCALYGNSPKGFAYWGQGTLVTVSAGGGGSGGRASGGGGSDIQMTQSPKFLLVSAGDRVTITCKASQSVSNDVAWYQQKPGQSPKLLMYYASNRYTGVPDRFTGSGYGTDFTFTISTVQAEDLAVYFCQQDYGSPPTFGGGTKLEIKR
modifications: scFv derived from IgG; Description of Artificial Sequence:scFv from hybridoma cell line 193/AD3
notes: anti-FIX/FIXa monoclonal antibody, IgG isotype; ID; NOs; 81 and 82
clotting time (FVIII deficient plasma; 0.23 μg AB): 99.3 s | clotting time (FVIII deficient plasma; 0.34 μg AB): 97.1 s | clotting time (FVIII deficient plasma; 0.45 μg AB): 98.1 s | clotting time (FVIII deficient plasma; 0.9 μg AB): 94.4 s | clotting time (FVIII deficient plasma; 1.35 μg AB): 91.4 s | clotting time (FVIII deficient plasma; 1.8 μg AB): 93.7 s | clotting time (FVIII deficient plasma; 2.25 μg AB): 93.1 s | clotting time (FVIII deficient plasma; 4.5 μg AB): 95.6 s | clotting time (FVIII deficient plasma; 9 μg AB): 101.6 s | procoagulant activity (FVIII deficient plasma): procoagulant | reduction of the clotting time (FVIII deficient plasma; various amounts of antibody, 50 ng activated FIX): clear dose-dependent reduction of the clotting time; also recorded: reduction in the coagulation time | reduction of the clotting time (FVIII inhibitor plasma): clear dose-dependent reduction of the clotting time | time course of FVIII-like activity (chromogenic substrate cleavage, OD 405 nm) (factor IXa; purified IgG (198/AC1/1 10 μg/ml) or unpurified IgM supernatant): give rise to chromogenic substrate cleavage; also recorded: gave rise to chromogenic substrate cleavage
